# System: K4 kissing-loop RNA reporter
# Assay: apparent KD of K4 kissing-loop reporter; higher = weaker reporter binding
# Conditions: Eterna round: R107; input ligand: arginine 13.2 mM
# Experimental: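 RNA-MaP round R107: designed RNA switches with theophylline, tryptophan, arginine or FMN aptamers are transcribed on-chip within common flanks. They are titrated with a labelled K4 kissing-loop RNA reporter in RNA-MaP buffer (100 mM Tris pH 7.5, 80 mM KCl, 4 mM MgCl2), without ligand or with the indicated ligand. Median apparent KD per design.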
# 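Also: bound reporter read as fluorescence of individual clusters on recovered sequencing chips by microscopy, with normalized cluster intensities fitted with a binding model.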
row,Sequence,apparent KD of K4 kissing-loop reporter
1,CCAGGAUGAUGAGGAUGAUAAAUUACUGAAGGAGCGCAUAUAGUUGCAGGUAGGUCGCGGUGAAUAAGUAUAGUGAUGUUAUACC [SSArgA.Aa],0.263 µM
2,UCUCCAAAGUCGGCCGCCACUCCGGGCCCUAUAAAUGGGCGCAGUGAUGUUGCGGCUAGGCCUCUGAGGACCGGGACUUUGUAGA [Estiorquin],0.0557 µM
3,UGAUUGGCGAAAGUAGUGAUGUUACGAAUAUAGGAUAUUAGAGGAAUAAGAAGGAUAAAGGAGAAAUAGGUAAAUUGUUGGUUGG [whbob_SS_FMNA__2th169],0.0598 µM
4,ACGUCACGUAUACUCGUGGUUUCGAUCGAUACCAGUAGCGAGAGUUACCCUUGGCAGCGACAUGAGUGAUGUUCAUGUGCGAAGA [KL-XTheo-A3 #analogue],0.106 µM
5,GGCGCAGUGAUGUUGCGGGCCGAGAGUGAUACCAGCCGUAUUUGUGGCCCUUGGCAGCGCAGAACCAGUGAUGUUGGUUACUUGG [Same State Theophylline A GF 22],0.513 µM
6,AAAAUAAAGGAGUGAUGUUCCAUAACGGAUACCAGCCACGAAAGUGGCCCUUGGCAGCUGUGCCAGUGGACGAAUAACGUCCACA [#OpenEnded 6 #StaticStem #K4Early],0.287 µM
7,UGUCAUUGGUCGGCCGCCACUAGGACCGGGUUUUGCCUAGUGAUGUUAGUAUGAACGGCCGCCACUAGGACCGGGACCGAUGACU [KL-SSTryp-B26 #DoubleAptamer],0.279 µM
8,UCGCCCGAUGGAGAUACCAGCAGUUGUGCAGUGAUGUUGCACAAGUACUCGCUCCAUUGCUGCCCUUGGCAGCUCCCGGCAAACA [Enraed],0.085 µM
9,AUAUUACUAUACGAUACCAGCCCUAACACUAGUGACGCGGUAAUAGUGAUGUUGUAACCCGGCCCUUGGCAGCGUAAUCAUGGAA [theeternabot_sameState_KL_Theo_B_7],0.395 µM
10,UCUGGAGUAUAUGAUACCAGCAGUGAGAGACAGGAAGUAUAGUGAUGUUAUAUGAGAGAAUGCCCUUGGCAGCGUGUGCGGUGGC [SSTheophylB.Q],0.0778 µM
11,GCACUACAAUAAGGAUAUCAUAAAAUGGAGAGCGAGUGAUGUUCGCAGAGACACCUAUUUUUCCUAUGAGAAGGUAUUAACGCCG [theeternabot_sameState_KL_FMN_B_40],0.099 µM
12,UUAGUCUAGAGAGGAUAUCAGUGAUGUUGAUAUCAAGAUCUAAGAUAGAAUUCUAUCUUAGAUCAAUGAGAAGGCUCUAGACAUU [AK1.1 Exc FMN B],0.144 µM
13,GUGUCCUAGUCGGCCGCCACUGGGUGCAAAAUAGAAGGAGCAUUGCACAUCAGUGAUGUUGAUGUCAGGACCGGGACUAGGGUGU [KL-SSTryp-B5 Brourdwalk1],0.406 µM
14,GGAUCCACCAGUGAUGUUGGAAAAUACUCCAAGGAUAUGACGAAAGUCAGAAGGUGGUAGACUGGACAAAGUCCAGUCGGAUCCA [FmnA 27 #SwitchBubble #K4Early],0.205 µM
15,GGGAGCAAAGCUCCCGGAUGCUAUUACCAGUAGGAUAUCUGGAAACAGAGAAGGGCUAAGCCAGUGAUGUUGGUUUCGAGCAUCC,0.575 µM
16,AACGUUUUGAGAAGGAGCGCGUUAAGCAGUGAUGUUGCUUUAUUAUAUUUACUACAUAUUUCGCAGGUAGGUCGCUCAAUACGUA [JR_Nu_SSArginiB_Sub025],0.153 µM
17,CGUAGCAGACGAAGGAGCGGCUACCUGAUUCAAGGUGAUGCUUGAGUGAUGUUCAGGUGUAGCCAGGUAGGUCGCGUCUGCUACG [Arg B Ex t9],0.144 µM
18,AAUAUCUAGUAUAUUUUUAAUAAAACAGAUACCAGUGAUAAUAGACACCCUUGGCAGCUGGUCGAGUGAUGUUCGUUUAUAUUAA [JR_SSTheophyA_Sub006],0.0836 µM
19,CGCAAGCAGCCAGUGAUGUUGGCCGCCUUGCGAGGACCGGUACGGCCGCCACUCGAAGGCGGCUACUAGUAAACCGCCUAACGGA [KL-XTryp-A17],0.0911 µM
20,AAUGCAUAGUGAAGGAGCGCGAUUUGCAGUGAUGUUGCAAAUUUAAACAAUCUUAUCUUUUCGCAGGUAGGUCGCACUAUGCAUA [JR_Nu_SSArginiB_Sub021],0.0903 µM
21,UAACUCUUGCAGUGAUGUUGCAAGUAUGCUCAGGAUAUCAGGAAACUGAGAAGGGAGUUUCCUGAGCUUCUGCAAGAGCUCAGAA [KL-SSFMN-A6],0.408 µM
22,AAGUGGGAACGGCCCAAUAAAGUGUUUGUCAAGGAUAUUAUUCACAUAAGAAGGUGACAGACCACCUCCGGAGUGAUGUUUUGGA [theeternabot_sameState_KL_FMN_A_42],0.443 µM
23,AAAAUAAGCCAGUGAUGUUGGUAUGCAGAUACCAGCGACGAAAGUCGCCCUUGGCAGCUGUGGACGUACAAAAUAAGUACGUCCU,0.109 µM
24,GGUCGAGUGAUGUUCGAUGUAGUGCAUUCAGAGGAUAUAGGAUGGGCUAGAAGGCUGAAAGGUGCUUCGAGUGAUGUUCGAGGAU [Exclusion FMN A GF 3],0.0807 µM
25,UUGUUUGGUUGAGAGGUUGGGCGAGAUGAUACCAGUAGAUAAGAAUACCCUUGGCAGCAUAAGAAAGAUAUAGUGAUGUUGUAUA [SSTheophA.N],0.386 µM
26,AAGCAGUUCUCAAAGAGUACUGCAGGACAGCAGGAUAUAGUGAUGUUGAGAAGGGCUGUCCCGUCUGCAUGAAACAUGCAGACGA [Simply curious],0.688 µM
27,AAGCAGUCAGGAUCGAAGAUCCUGCAAUACCGAGGACCGGUACGGCCGCCACUCGGAGUGAUGUUCCGAAGACUGCAAAAUAAAA [#SwitchBubble 7],0.255 µM
